Where “and” joins values, the source holds several entries; their conditions need not be identical. Identical values can stand only once.

A word on the stoichiometry N: it is the number of molecules, sites or subunits per partner or assembly.

Assay [1] has as its target IRE1α kinase-endoribonuclease module, fully phosphorylated (IRE1-KR-3P) (human) (UniProt O75460). As to the kind of experiment: cross-linking.
For assay [2], the target named is IRE1α kinase-endoribonuclease module, unphosphorylated (IRE1-KR-0P) (human) (UniProt O75460). As to the kind of experiment: cross-linking.

Take “IRE1α kinase-endoribonuclease module, fully phosphorylated (IRE1-KR-3P) (from UniProt O75460 547-977) (domain or fragment)”: the stoichiometry N in assay [1] was 2 and 4 and 6.
Consider “IRE1α kinase-endoribonuclease module, unphosphorylated (IRE1-KR-0P) (from UniProt O75460 547-977) (domain or fragment)”, for which the stoichiometry N in assay [2] turned out to be 2.

For the origin of these results see paper doi:10.1101/2021.03.16.435520.
